Results taken from patent US20120082682A1 (GlaxoSmithKline, published 2012).
Changes are numbered by the printed parent chain. Values belong to the binder of their own block, whether it stands above or below them.

Tests used:
[1] = target: T1, human IL-4 (recombinant E. coli-expressed) (human, UniProt P05112 25-153); test: Biacore T100 SPR, Protein A capture (CM5), 1:1 fit; paragraph 260 calls Table 20 IL13, its footnote and values point to IL4
T1 sequence (looked up): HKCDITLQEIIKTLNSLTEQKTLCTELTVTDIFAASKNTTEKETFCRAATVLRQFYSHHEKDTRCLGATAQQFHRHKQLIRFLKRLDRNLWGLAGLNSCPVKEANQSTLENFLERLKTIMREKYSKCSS
Method: (§1) Protein A was immobilised on a CM5 chip by primary amine coupling; this surface was used as a capture surface for the antibody molecules to be tested. […] Regeneration the Protein A surface was with 50 mM NaOH. The assay was run at 25° C. using HBS-EP as running buffer. The data was fitted to 1:1 model inherent to the Biacore T100 analysis software.

[2] = target: T1, human IL-4 (recombinant E. …); test: Biacore T100 SPR, Protein A capture (CM5), human IL4 analyte, 1:1 fit
Method: Purified mAbs and mAbdAb constructs were tested in a BIAcore assay to determine whether the mutation of position 89 had any effect on the binding of the dAb to IL-4.
as §1, with “Regeneration of” for “Regeneration”, “the […]” for “the Protein”, “was achieved using” for “was with”

[3] = target: T1, human IL-4 (recombinant E. …); test: as above; remark: listed apart in the source
Method: (§2) Protein A was immobilised on a CM5 chip by primary amine coupling; this surface was used as a capture surface for the antibody molecules to be tested.
(§3) All binding curves were double referenced with a 0 nM injection (i.e. buffer alone). Regeneration of the Protein A surface was with 50 mM NaOH. The assay was run at 25° C. using HBS-EP as running buffer. The data was fitted to 1:1 model inherent to the Biacore T100 analysis software.

[4] = target: T2, human IL-13 (recombinant E. coli-expressed) (human, UniProt P35225 35-146); test: Biacore T100 SPR, Protein A capture (CM5), human IL13 analyte, 1:1 fit
T2 construct: also called hIL-13
T2 sequence (P35225 other isoform, or with tags, fused parts or gaps limits assumed): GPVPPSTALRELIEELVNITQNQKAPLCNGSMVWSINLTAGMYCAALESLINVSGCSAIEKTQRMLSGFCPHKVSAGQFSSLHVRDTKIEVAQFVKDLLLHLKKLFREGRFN
Method: Protein A was immobilised on a CM5 chip by primary amine coupling; this surface was used as a capture surface for the antibody molecules to be tested. […] All binding curves were double referenced with a 0 nM injection (i.e. buffer alone).
Regeneration of the Protein A surface was with 50 mM NaOH. The assay was run at 25° C. using HBS-EP as running buffer. The data was fitted to 1:1 model inherent to the Biacore T100 analysis software.

[5] = target: T1, human IL-4 (recombinant E. …); test: direct binding ELISA, plate coated with 5 ug/ml human IL-4, anti-human kappa light chain-HRP detection, absorbance at 490 nm
Method: 96-well high binding plates were coated with 5 μg/ml human IL-4 (made at GSK) in NaHCO₃ and stored overnight at 4° C. The plates were washed twice with Tris-Buffered Saline with 0.05% of Tween-20 (TBST). 100 μL of blocking solution (1% BSA in TBST buffer) was added in each well and the plates were incubated for at least one hour at room temperature. The mAbdAbs were successively diluted across the plates in blocking solution. After one hour incubation, the plates were washed three times. Goat anti-human kappa light chain specific peroxidase conjugated antibody (Sigma A7164) was diluted in blocking solution to 1 μg/mL and 50 μL was added to each well. The plates were incubated for one hour. After another three washing steps, 50 μl of OPD (o-phenylenediamine dihydrochloride) SigmaFast substrate solution was added to each well and the reaction was stopped after about 5 minutes by addition of 25 μL of 3M sulphuric acid. Absorbance was read at 490 nm using the VersaMax Tunable Microplate Reader (Molecular Devices) using a basic endpoint protocol.

[6] = target: T1, human IL-4 (recombinant E. …); test: cell-based or functional assay
[7] = target: T1, human IL-4 (recombinant E. …); test: Biacore T100 SPR, Protein A capture (C1 chip), human IL4 analyte, 1:1 fit; on-rate beyond the sensitivity of Biacore (footnote)
Method: as §1, with “Cl” for “CM5”, “100” for “50”, “Phosphoric acid.” for “NaOH.”

[8] = target: T1, human IL-4 (recombinant E. …); test: Biacore T100 SPR, Protein A capture (CM5), human IL4 analyte, 1:1 fit; footnote: rates not measurable
Method: as §2, §3

[9] = target: T1, human IL-4 (recombinant E. …); test: Biacore T100 SPR, Protein A capture (C1 chip), human IL4 analyte, 1:1 fit
Method: as §1, with “Cl” for “CM5”, “100” for “50”, “Phosphoric acid.” for “NaOH.”

[10] = target: T1, human IL-4 (recombinant E. …); test: Biacore T100 SPR, Protein A capture (CM5), human IL4 analyte
Method: as §2, §3

[11] = target: T2, human IL-13 (recombinant E. …); test: Biacore T100 SPR, purified mAb captured on anti-human IgG, IL13 analyte, 1:1 fit
Text: (§4) Table 1 details the overall affinities (equilibrium dissociation constant KD) for the selected constructs from the ProteOn screen and the T100 run

[12] = target: T2, human IL-13 (recombinant E. …); test: Biacore T100 SPR, mAb captured on anti-human IgG, IL13 analyte
Method: as §4
(§5) In light of this, mutations at this residue that were not present in the initial screen were tested using the ProteOn using the same method as described earlier and again using antibodies direct from tissue culture supernatants.

[13] = target: T2, human IL-13 (recombinant E. …); test: Biacore T100 SPR, mAb captured on anti-human IgG, IL13 analyte, 1:1 fit
Text: as §4

[14] = target: T2, human IL-13 (recombinant E. …); test: cell-based or functional assay
[15] = target: T2, human IL-13 (recombinant E. …); test: ProteOn XPR36 SPR, mAb captured on anti-human IgG, IL13 analyte
Method: (§6) The initial screen of CDRH3 mutants was carried out on the ProteOn XPR36 (Biorad). […] 3M MgCl₂ was used to regenerate the capture surface, removing the bound CDRH3 mutant antibodies ready for another cycle of capture and analyte injection. The data was fitted to the 1:1 model using the software inherent to the machine.

[16] = target: T2, human IL-13 (recombinant E. …); test: cell-based or functional assay; remark: listed apart in the source
[17] = target: T2, human IL-13 (recombinant E. …); test: ProteOn XPR36 SPR, purified mAb captured on anti-human IgG, IL13 analyte, 1:1 fit; range over several runs
Method: as §6

[18] = target: T2, human IL-13 (recombinant E. …); test: Biacore T100 SPR, purified mAb captured on anti-human IgG, IL13 analyte, 1:1 fit; remark: listed apart in the source
Text: as §4

[19] = target: T2, human IL-13 (recombinant E. …); test: ProteOn XPR36 SPR, mAb (supernatant) captured on anti-human IgG, IL13 analyte
Method: as §6, §5

[20] = target: T1, human IL-4 (recombinant E. …); test: direct binding ELISA, plate coated with 5 µg/ml human IL-4, anti-human kappa light chain-HRP detection, absorbance at 490 nm
Method: An ELISA was performed as described in example 4, coating 96-well high binding plates with 50 μl/well of recombinant E. coli-expressed human IL-4 at 5 μg/ml and incubated at +4° C. overnight.

[21] = target: T2, human IL-13 (recombinant E. …); test: Biacore T100 SPR, mAb (supernatant) captured on anti-human IgG, IL13 analyte, 1:1 fit
Text: as §4

B1: BPC1085 (bispecific antibody, human IgG1, kappa)
heavy: not shown
light: DIVMTQSPLSLPVTPGEPASISCRSSQNIVHINGNTYLEWYLQKPGQSPRLLIYKISDRFSGVPDRFSGSGSGTDFTLKISRVEADDVGIYYCFQGSHVPWTFGQGTKLEIKRTVAAPSVFIFPPSDEQLKSGTASVVCLLNNFYPREAKVQWKVDNALQSGNSQESVTEQDSKDSTYSLSSTLTLSKADYEKHKVYACEVTHQGLSSPVTKSFNRGEC
notes: also called 829H-GS(TVAAPSGS)2-154 (89Q)
Kd [1]: 0.048 nM | Kd [2]: 0.052 nM | Kd [3]: 0.078 nM | Kd [4]: 0.073 nM | EC50 (read off the curve) [5]: ~4 nM | Mean ND50 value (nM), TF-1 cell proliferation bioassay [6]: 9.21 nM

B3: BPC1112 (bispecific antibody, human IgG1, kappa)
heavy: not shown
light: B1 light
notes: mAbdAb; dAb Kabat 89 K; also called 829H-(TVAAPS)2GS-154 (89K)
Kd [8]: 29 nM | koff [8]: 3.31 s⁻¹

B8: A1L1 (antibody, human IgG1, kappa, V domains shown)
VH: QVQLVQSGAEVKKPGSSVKVSCKASGFYIKDTYMHWVRQAPGQGLEWMGTIDPANGNTKYVPKFQGRVTITADESTSTAYMELSSLRSEDTAVYYCARSIYDDYHYDDYYAMDYWGQGTLVTVSS
VL: DIVMTQSPLSLPVTPGEPASISCRSSQNIVHINGNTYLEWYLQKPGQSPRLLIYKISDRFSGVPDRFSGSGSGTDFTLKISRVEADDVGIYYCFQGSHVPWTFGQGTKLEIKR
notes: Humanised version of murine 6A1, human IgG1 kappa; also called parental; 586 (mAb)
Kd [11]: 0.326 nM | koff [11]: 0.000368 s⁻¹ | kon [11]: 1.13e+06 M⁻¹ s⁻¹ | Kd [12]: 0.346 nM | Kd [13]: 0.36 nM | koff [13]: 0.000456 s⁻¹ | kon [13]: 1.27e+06 M⁻¹ s⁻¹ | ND50 (nM), TF-1 cell proliferation bioassay [14]: 9.77 nM | Kd [15]: 0.39 to 0.46 nM | Mean ND50 value (nM), TF-1 cell proliferation bioassay [16]: 5.01 nM | Kd [17]: 0.45 to 0.6 nM | Kd [18]: 0.366 nM

B9: A1Y100B ValL1 (antibody, human IgG1, kappa, V domains shown)
VH: B8 VH with Y106V
VL: B8 VL
notes: CDRH3 variant of A1L1; also called A1Y100BVAL1; 829 (mAb)
Kd [11]: 0.027 nM | koff [11]: 2.12e-05 s⁻¹ | kon [11]: 776000 M⁻¹ s⁻¹ | Kd [12]: 0.025 nM | Kd [19]: 0.166 nM | binding result [20]: no binding (tested: 10 µg/ml) | Kd [21]: 0.034 nM | koff [21]: 3.45e-05 s⁻¹ | kon [21]: 1.02e+06 M⁻¹ s⁻¹

The remaining lines, values ahead:

Kd [7]: 0.01 nM
B2: BPC2230 (bispecific antibody, human IgG1, kappa)
heavy: not shown
light: B1 light
notes: mAbdAb with the original CDRH3 and the unmutated DOM9-155-154 dAb

Kd [1]: 0.002 nM | Kd [7]: 0.006 nM | EC50 (read off the curve) [5]: ~3 nM
B4: BPC2231 (bispecific antibody, human IgG1, kappa)
heavy: not shown
light: B1 light
notes: as for B2

Kd [2]: 0.01 nM | Kd [9]: 0.018 nM
B5: BPC2223 (bispecific antibody, human IgG1, kappa)
heavy: not shown
light: B1 light
notes: as for B2

binding result [10]: no binding (tested: IL4 up to 64 nM)
B6: BPC1113 (bispecific antibody, human IgG1, kappa)
heavy: not shown
light: B1 light
notes: mAbdAb; dAb Kabat 89 D; also called 829H-(TVAAPS)2GS-154 (89D)

binding result [10]: no binding (tested: IL4 up to 64 nM)
B7: BPC1119 (bispecific antibody, human IgG1, kappa)
heavy: not shown
light: B1 light
notes: mAbdAb; dAb Kabat 89 P; also called 829H-(TVAAPS)2GS-154 (89P)
